B1: Twister Ribozyme (parent)
chain: AACACUGCCAAUGCCGGUCCCAAGCCCGGAUAAAAGUGGAGGGGGCGG

The data set covers variants of B1. In words: self-cleavage, relative activity (ratio to wild type); higher = more cleavage; co-transcriptional.
Take AACACUGCCAAUGCCGGUCCCAAGCUCAGAUAAAAGUGGAGGGGGCGG [C26U G28A]: the self-cleavage was 0.106.
The same measure for AACACUGCCAAUGCCGGUCCUAAGCCCGGAUAAGAGUGGAGGGGGCGG [C21U A34G]: 0.0608; for AACACUGGCAAUGCCGGUCUCAAGCCCGGAUAAAAGUGGAGGGGGCGG [C8G C20U]: 0.0992.
As for ACCCCUGCCAAUGCCGGUCCCAAGCCCGGAUAAAAGUGGAGGGGGCGG [A2C A4C], the figure is 0.154; as for AACACUGCCAAUGCCGGUCCCAGGCCCGGAUACAAGUGGAGGGGGCGG [A23G A33C], 0.187; as for AACACUGGCAAUGCCCGUCCCAAGCCCGGAUAAAAGUGGAGGGGGCGG [C8G G16C], 0.0753.
As for AACCCUGCCAAUGCCGGUCCCAAGCCCGGAUAAAAGUGGAGGGGGCAG [A4C G47A], the figure is 0.178; as for AACACUGCCAAUGCCGUUCCCAAGCCAGGAUAAAAGUGGAGGGGGCGG [G17U C27A], 0.148.
For the variant AACACUGCUAAUGCCGGUCCCAAGCCCAGAUAAAAGUGGAGGGGGCGG [C9U G28A], the self-cleavage is 0.562.
In the case of GACACUGCCAAUGCCGGUCCCAAGCCCGGAUAAAAGUGGAGGGGGCAG [A1G G47A], the self-cleavage worked out at 0.334.
In the case of AACACUGCCAAUGCCGGUCCCGAGCCCGGAUAAAAGUGGAGGGGGCAG [A22G G47A], the self-cleavage came out at 0.184.
As for AACACUGCCAGUGCCGGUCCCAAGCCCGGAUAAAAGUGGAGGGGCCGG [A11G G45C], the figure is 0.343; as for AACACUGCCAAUGCCGGUCCCAAGCCCGGAAUAAAGUGGAGGGGGCGG [U31A A32U], 1.05; as for AACACUGCCAAUGCAGGUCCCAAGCCCGGAUAAAAGUGGAGGGGGGGG [C15A C46G], 0.525.
As for AACACUGCCAAUGCCGGGCCCAAGCCCGGACAAAAGUGGAGGGGGCGG [U18G U31C], the self-cleavage was 0.106.
As for AACACUGCCAAUGCCGGGCCCAAGCCCGGAAAAAAGUGGAGGGGGCGG [U18G U31A], the figure is 0.0937; as for AACACUGCCAGCGCCGGUCCCAAGCCCGGAUAAAAGUGGAGGGGGCGG [A11G U12C], 1.13; as for AACACUGCCAAUGCCGGUCCCAAGCCCGGAUAAUAUUGGAGGGGGCGG [A34U G36U], 0.124.
As for AACACUGCUAAUGACGGUCCCAAGCCCGGAUAAAAGUGGAGGGGGCGG [C9U C14A], the figure is 0.56; as for AACAGUGCCAAUGCCGGUCCCAAGCCCGGAUAAAAGGGGAGGGGGCGG [C5G U37G], 0.519.
The same measure for UACACUGCCAAUGCCGGUCCCAAGCCCGGAUAAAAGUGGAGGGGGCUG [A1U G47U]: 0.0673.
Regarding AACACCGCCAAUGCCGGUCCCAAGCCCGGAUAAAAGUAGAGGGGGCGG [U6C G38A], the self-cleavage amounted to 0.423.
Regarding CACACUGCCAAUGCCGGUCCCAUGCCCGGAUAAAAGUGGAGGGGGCGG [A1C A23U], the self-cleavage came out at 0.184.
As for AACACUGCCAAUGCCGGUCCCAAACCCGGAUAAAAGUGGAGGGGUCGG [G24A G45U], the figure is 0.118.
In the case of GACACUGCCAAUGCCGGUCCCAAGCCCGGAUAAAAGUGGGGGGGGCGG [A1G A40G], the self-cleavage is 0.227.
Take AACACUGCCAAUGCCGGUCCCAAUCCCGGUUAAAAGUGGAGGGGGCGG [G24U A30U]: the self-cleavage was found to be 0.109.
Take AACACUGCCAAUGCCUGUCCCAAGCUCGGAUAAAAGUGGAGGGGGCGG [G16U C26U]: the self-cleavage was 0.15.
The same measure for AACACGGCCAAUGCCGGUCCCAAGCCCGGAUAAAAGUGGAGGGAGCGG [U6G G44A]: 0.229.
The same measure for AACUCUGCCAAUGCCCGUCCCAAGCCCGGAUAAAAGUGGAGGGGGCGG [A4U G16C]: 0.0898; for AACACUGCCAAUGCCGGUCCCCAGCCCGGAUAAAAGUGGACGGGGCGG [A22C G41C]: 0.195; for AACACUGCCAAUGCCGUUCCCAAGCCCGGAUGAAAGUGGAGGGGGCGG [G17U A32G]: 0.345.
In the case of AACACUGCCAAUGCCGGUACCAAGCCCGGAUAAAAGUGGAGGCGGCGG [C19A G43C], the self-cleavage was determined as 0.317.
Take AACACUGCCAAUGCCGGUCCCAAGCCCGGAUAAAAGGGGAGGGGGGGG [U37G C46G]: the self-cleavage amounted to 0.79.
Consider AACAUUGCCAAUGCCGGUCCCAAGCCCGGAUAAAAGUGGAGGGGGCAG [C5U G47A], for which the self-cleavage turned out to be 0.727.
As for AACACUGCCAAUGCCGGUCCCAAACCCGGAUAAAAGUGGAGCGGGCGG [G24A G42C], the figure is 0.0923; as for AACCCUGCCAAUGCCGGUCCCAAGCCCGGAUAAAAGCGGAGGGGGCGG [A4C U37C], 0.122; as for AACGCUGCCAAUGCCUGUCCCAAGCCCGGAUAAAAGUGGAGGGGGCGG [A4G G16U], 0.839.
The same measure for AACACUGCCAAUGGCGGUCCCAAGCCCGGAUAAAAGUGGAGGGGGCUG [C14G G47U]: 0.0804; for AACACGGCCAAUGCCGGUCCCAAGUCCGGAUAAAAGUGGAGGGGGCGG [U6G C25U]: 0.252.
AACACUGCCAAUGCCGGUCCCAAUCCCGGAUAAAAGUGCAGGGGGCGG [G24U G39C]: the self-cleavage came out at 0.0634.
As for AAUACUUCCAAUGCCGGUCCCAAGCCCGGAUAAAAGUGGAGGGGGCGG [C3U G7U], the self-cleavage was found to be 0.0522.
Turning to AUUACUGCCAAUGCCGGUCCCAAGCCCGGAUAAAAGUGGAGGGGGCGG [A2U C3U], the self-cleavage amounted to 0.221.
Take AUAACUGCCAAUGCCGGUCCCAAGCCCGGAUAAAAGUGGAGGGGGCGG [A2U C3A]: the self-cleavage was found to be 0.077.
As for AACACUGCCGAUGCCGGUCCCAAGUCCGGAUAAAAGUGGAGGGGGCGG [A10G C25U], the figure is 0.874; as for AACACUGCCAAUGCCGGUCCCAAGCCCGGAUUAAAGUUGAGGGGGCGG [A32U G38U], 0.94; as for AACACUGCCAAUGCCGGUCCCUCGCCCGGAUAAAAGUGGAGGGGGCGG [A22U A23C], 0.0587.
With AACACUUCCAAUGCCGGUACCAAGCCCGGAUAAAAGUGGAGGGGGCGG [G7U C19A], the self-cleavage was determined as 0.0864.
For the variant AAAACUGCCAAUGGCGGUCCCAAGCCCGGAUAAAAGUGGAGGGGGCGG [C3A C14G], the self-cleavage is 0.0567.
Consider AGCACUGCCAAUGCCGGUCCUAAGCCCGGAUAAAAGUGGAGGGGGCGG [A2G C21U], for which the self-cleavage amounted to 0.0523.
In the case of AACACUGCCAAUGCCGGUCCCAAGCCCAGAUAAAUGUGGAGGGGGCGG [G28A A35U], the self-cleavage is 0.847.
As for GACACUGACAAUGCCGGUCCCAAGCCCGGAUAAAAGUGGAGGGGGCGG [A1G C8A], the figure is 0.22; as for AACACUGCCCAUGCCGGUACCAAGCCCGGAUAAAAGUGGAGGGGGCGG [A10C C19A], 0.214.
As for AACACUGCCAACGCCGGUCCCAAGCCCUGAUAAAAGUGGAGGGGGCGG [U12C G28U], the self-cleavage is 0.88.
The same measure for AACAUUGCCAAGGCCGGUCCCAAGCCCGGAUAAAAGUGGAGGGGGCGG [C5U U12G]: 0.763.

Values taken from the RNAGym collection of RNA variant scans (doi:10.7554/elife.80360).
